Laboratory results as given in US20230295310A1 (ABCELLERA BIOLOGICS, published 2023).
Substitutions are numbered along the chain they refer to.

B1: GOMP001_bsAb_040 (bispecific antibody, human IgG1, kappa, L234A L235A)
heavy 1: EVQLVESGGGLVKTGGSHRLSCVASGFSFKKAWMNWVRKAPGKGLEWVGRIKRNSDGGTTDYAAEVKGRFILSRDDSKNTLYLQMNSLKTEDTAVYYCTTLDSSSWYVGYYYMDVWGKGTTVTVSSASTKGPSVFPLAPSSKSTSGGTAALGCLVADYFPEPVTVSWNSGALTSGVHTFPAVLQSSGLYSLSSVVTVPSSSLGTQTYICNVNHKPSNTKVDEKVEPKSCDKTHTCPPCPAPEAAGGPSVFLFPPKPKDTLMISRTPEVTCVVVDVSHEDPEVKFNWYVDGVEVHNAKTKPREEQYNSTYRVVSVLTVLHQDWLNGKEYKCKVSNKALPAPIEKTISKAKGQPREPQVYTLPPSREEMTDNQVSLTCLVKGFYPSDIAVEWESNGQPENNYKTTPPVLMSDGSFFLASKLTVDKSRWQQGNVFSCSVMHEALHNHYTQKSLSLSPG
light 1: RIQMTQSPSSVSASVGDRVTITCRASQDINNWLAWYQDKPGKAPKILIYTASNLQSGVPSRFSGSGSGTDFTLTISSLQPEDFATYFCQQAHSLPITFGQGTRLEIKRTVAAPSVFIFPPSDKQLKSGTARVVCLLNNFYPREAKVQWKVDNALQSGNSQESVTEQDSKDSTYSLSSTLTLSKADYEKHKVYACEVTHQGLSSPVTKSFNRGEC
heavy 2: QVQLVQSGAEVKKPGASVKVSCKASGYTFTSHWMHWVRYAPGQGLEWIGEFNPSNGRTNYNEKFKSKATMTVDTSTNTAYMELSSLRSEDTAVYYCASRDYDYDGRYFDYWGRGTLVTVSSASTKGPSVFPLAPSSKSTSGGTAALGCLVKDYFPEPVTVSWNSGALTSGVHTFPAVLQSSGLYSLSSVVTVPSSSLGTQTYICNVNHKPSNTKVDKKVEPKSCDKTHTCPPCPAPEAAGGPSVFLFPPKPKDTLMISRTPEVTCVVVDVSHEDPEVKFNWYVDGVEVHNAKTKPREEQYNSTYRVVSVLTVLHQDWLNGKEYKCKVSNKALPAPIEKTISKAKGQPRRPRVYTLPPSREEMTKNQVSLVCLVKGFYPSDIAVEWESNGQPENNYKTTPPVLDSDGSFFLYSVLTVDKSRWQQGNVFSCSVMHEALHNHYTQKSLSLSPG
light 2: DIQMTQSPSSLSASVGDRVTITCSASSSVTYMYWYQRKPGDAPKLLIYDTSNLASGVPSRFSGSGSGTDYTFTISSLQPEDIATYYCQQWSSHIFTFGQGTKVEIKRTVAAPSVFIFPPSDEQLKSGTASVVCLLNNFYPREAKVQWKVDNALQSGNSQESVTEQDSKDSTYSLSSTLTLSKADYEKHKVYACEVTHQGLSSPVTKSFNRGEC
B2: GOMP001_bsAb_042 (bispecific antibody, human IgG1, kappa, L234A L235A)
heavy 1: B1 heavy 1 with H18L, S55T, T59P, T60A, I71T, N79K
light 1: B1 light 1 with T20I, Q37L, K39R, I46L, T50A, N53S, S76G, F87Y, K107Q
heavy 2: B1 heavy 2
light 2: B1 light 2
B3: GOMP001_bsAb_043 (bispecific antibody, human IgG1, kappa, L234A L235A)
heavy 1: QVQLVQSGAEVKKPGASVKVSCKASGYTFTSHWMHWVRKAPGQGLEWIGEFNPSNGRTNYNEEFKSKATMTVDTSTNTAYMELSSLRSEDTAVYYCASRDYDYDGRYFDYWGQGTLVTVSSASTKGPSVFPLAPSSKSTSGGTAALGCLVADYFPEPVTVSWNSGALTSGVHTFPAVLQSSGLYSLSSVVTVPSSSLGTQTYICNVNHKPSNTKVDEKVEPKSCDKTHTCPPCPAPEAAGGPSVFLFPPKPKDTLMISRTPEVTCVVVDVSHEDPEVKFNWYVDGVEVHNAKTKPREEQYNSTYRVVSVLTVLHQDWLNGKEYKCKVSNKALPAPIEKTISKAKGQPREPQVYTLPPSREEMTDNQVSLTCLVKGFYPSDIAVEWESNGQPENNYKTTPPVLMSDGSFFLASKLTVDKSRWQQGNVFSCSVMHEALHNHYTQKSLSLSPG
light 1: B1 light 2 with D1R, R37D, D41K, E122K, S130R
heavy 2: EVQLVESGGGLVKTGGSLRLSCVASGFSFKKAWMNWVRYAPGKGLEWVGRIKRNTDGGTADYAARVKGRFTLSRDDSKKTLFLQMNSLKTEDTAVYYCTTLDSSSYYVGYYYMDVWGRGTTVTVSSASTKGPSVFPLAPSSKSTSGGTAALGCLVKDYFPEPVTVSWNSGALTSGVHTFPAVLQSSGLYSLSSVVTVPSSSLGTQTYICNVNHKPSNTKVDKKVEPKSCDKTHTCPPCPAPEAAGGPSVFLFPPKPKDTLMISRTPEVTCVVVDVSHEDPEVKFNWYVDGVEVHNAKTKPREEQYNSTYRVVSVLTVLHQDWLNGKEYKCKVSNKALPAPIEKTISKAKGQPRRPRVYTLPPSREEMTKNQVSLVCLVKGFYPSDIAVEWESNGQPENNYKTTPPVLDSDGSFFLYSVLTVDKSRWQQGNVFSCSVMHEALHNHYTQKSLSLSPG
light 2: B1 light 1 with R1D, D38R, K42D, I46L, N53S, S76G, F87Y, K123E, R131S
B4: GOMP001_bsAb_044 (bispecific antibody, human IgG1, kappa, L234A L235A)
heavy 1: B1 heavy 1 with H18L, S55T, T60A, I71T, N79K, Y82F, W106Y
light 1: B1 light 1 with I46L, N53S, S76G, F87Y
heavy 2: B1 heavy 2
light 2: B1 light 2
B5: GOMP001_bsAb_041 (bispecific antibody, human IgG1, kappa, L234A L235A)
heavy 1: B3 heavy 1
light 1: B1 light 2 with D1R, R37D, D41K, E122K, S130R
heavy 2: B3 heavy 2 with T59P, F82Y, Y106W
light 2: DIQMTQSPSSVSASVGDRVIITCRASQDINNWLAWYLRRPGDAPKLLIYAASSLQSGVPSRFSGSGSGTDFTLTIGSLQPEDFATYYCQQAHSLPITFGQGTRLEIQRTVAAPSVFIFPPSDEQLKSGTASVVCLLNNFYPREAKVQWKVDNALQSGNSQESVTEQDSKDSTYSLSSTLTLSKADYEKHKVYACEVTHQGLSSPVTKSFNRGEC

Molecular target: EGFR on HeLa cells (UniProt P00533 25-1210, limits assumed)
Assay: cell-based or functional assay

| Binder | Max killing % | X… HeLa EC50 |
| --- | --- | --- |
| B1 | 89.5% | 0.0391 nM |
| B2 | 84.8% | 0.0341 nM |
| B3 | 76.2% | 0.102 nM |
| B4 | 84.1% | 0.0201 nM |
| B5 | 78.6% | 0.449 nM |
